Experiments:
[1] = target: human TGFβ1 (human) (UniProt P01137)
[2] = target: recombinant human Ang2 (human) (UniProt O15123); test: blocking ELISA: Ang2 coated on the plate, binding of recombinant human Tie2 is blocked
[3] = target: His tagged human Angiopoietin-2 (human) (UniProt O15123); test: bio-layer interferometry, rhAng2-His
His tagged human Angiopoietin-2 (human), sequence (O15123 19-496 limits assumed): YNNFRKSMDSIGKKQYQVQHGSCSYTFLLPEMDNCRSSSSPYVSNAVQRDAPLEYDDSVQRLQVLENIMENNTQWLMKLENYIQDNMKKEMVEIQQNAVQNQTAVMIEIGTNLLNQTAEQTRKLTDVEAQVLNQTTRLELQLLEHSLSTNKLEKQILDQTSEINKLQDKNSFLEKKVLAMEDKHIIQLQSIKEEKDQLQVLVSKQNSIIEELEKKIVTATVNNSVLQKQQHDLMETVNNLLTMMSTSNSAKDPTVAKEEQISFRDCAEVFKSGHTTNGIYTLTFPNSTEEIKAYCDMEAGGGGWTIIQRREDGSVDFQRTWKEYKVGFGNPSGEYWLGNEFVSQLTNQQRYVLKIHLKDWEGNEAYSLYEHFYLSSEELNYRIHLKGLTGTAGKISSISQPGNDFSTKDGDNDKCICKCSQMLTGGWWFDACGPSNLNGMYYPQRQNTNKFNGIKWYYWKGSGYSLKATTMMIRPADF

recombinant human Ang2 (human), sequence (O15123 19-496 limits assumed): as above
human TGFβ1 (human), sequence (P01137 279-390 limits assumed): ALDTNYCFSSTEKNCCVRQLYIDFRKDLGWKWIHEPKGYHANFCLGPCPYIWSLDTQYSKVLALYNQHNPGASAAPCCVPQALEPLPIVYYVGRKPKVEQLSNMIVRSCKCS

| IC50; luciferase signal of TGFβ/SMAD SBE Reporter-HEK293 cells stimulated with human TGFβ1 [1] [nM] | IC50 [2] [nM] | Kd [3] [nM] | koff [3] [s⁻¹] | kon [3] [M⁻¹ s⁻¹] | Substance |
| --- | --- | --- | --- | --- | --- |
| 2.02 |  |  |  |  | TGFβ1 RII-Fc (from UniProt P37173 24-159) (Fc fusion) |
|  | 0.57 |  |  |  | bevacizumab-trebananib |
|  | 0.5 | 1.23 | 0.000146 | 119000 | trebananib (Fc fusion) |
